Ends that are not written are not given here.
Target: T1, human PKCα catalytic domain (human, UniProt P17252 336-672, limits assumed)
T1 construct: domain: catalytic domain; For activity assays the catalytic domain was isolated by TEV cleavage; also called catalytic domain of PKCα; PKC catalytic domain
Assay: time-resolved FRET (TCSPC) of eGFP/mCherry peptide-catalytic domain sensor

Binder	Mol Fraction Bound [mol fraction]	Mol Fraction Unbound [mol fraction]
RRRRAIIFI (peptide, not shown: large carriers; small tags and cut ends, also called p10) [peptide #10 (Optimized PKA Sub.), alanine-substituted, in PKCα FRET sensor]	0.16	0.84
ASQKRPAQRH (peptide, not shown: large carriers; small tags and cut ends, also called p6) [peptide #6 (Myelin Basic Protein), alanine-substituted, in PKCα FRET sensor]	0.08	0.92
FKLKRKGAFKKFA (also: fused to PKCα catalytic domain via 10 nm ER/K linker in FRET sensor, Ala form in the FRET sensor, tethered to the PKCα catalytic domain by the 10 nm ER/K FRET linker; also called p11) [peptide #11 (Optimized PKCβ Sub.), alanine-substituted, in PKCα FRET sensor]	0.15	0.85
